Paper doi:10.1101/305789
Values joined by “and” are separate entries in the source; they are usually repeats but may differ in a detail not shown here. Equal values may be shown once.

Target: Flag-tagged tomato PCNA (Proliferating cell nuclear antigen) (Solanum lycopersicum)
Test: western blot of anti-Flag immuno-purified protein

Q: For “Flag-tagged tomato PCNA (Proliferating cell nuclear antigen) (natural protein)”, which stoichiometry N is on record?
A: 2 and 3
